Measurements: the supplement of paper PMC6757056
± gives the standard deviation of the averaged measurements.

B1: library; a variant is named by its letters at N, in order (parent)
chain: GCUGUCACCGGUGCUUGGUACGUUAUAUUCAGCCGGUCUGAUGAGUCUNNNNNNAGACGAAACAGC

Tests used:
(6R,S)-folinic acid [1] = variants of: B1; experiment: FACS-Seq fitted mean relative fluorescence mCherry/BFP without ligand (log10 relative fluorescence); HEK293T overexpressing SLC46A1; higher = higher reporter protein expression; details: without (6R,S)-folinic acid; ligand present: no
Procedure: (§1)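 Hammerhead (sTRSV) ribozyme switch libraries with a ligand aptamer grafted on stem I and a randomized N4-6 loop II, cloned into the 3' UTR of mCherry and transiently transfected into HEK293T cells; RNA-Seq 72 h post transfection with ligand added 1 h before transfection; RNA read count / plasmid DNA read count normalized to the non-cleaving sTRSVctl (x100), log10; sequences with >100 DNA reads. FACS-Seq: lentiviral library sorted into 6 bins after 48 h ligand, log-normal fit mean of mCherry/BFP scaled to controls. Printed sequences are partial switch sequences.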

(6R,S)-folinic acid [2] = variants of: B1; experiment: normalized RNA/DNA level without ligand (relative to sTRSVctl = 100) (log10 (% of sTRSVctl)); HEK293T overexpressing SLC46A1; higher = less ribozyme self-cleavage, higher mRNA level; details: without (6R,S)-folinic acid; ligand present: no
Procedure: as §1

(6R,S)-folinic acid [3] = variants of: B1; experiment: FACS-Seq fitted mean relative fluorescence mCherry/BFP with ligand (log10 relative fluorescence); HEK293T overexpressing SLC46A1; ligand concentration (+) FACS-Seq: 6 mM; higher = higher reporter protein expression; details: with (6R,S)-folinic acid; ligand present: yes
Procedure: as §1

(6R,S)-folinic acid [4] = variants of: B1; experiment: normalized RNA/DNA level with ligand (relative to sTRSVctl = 100) (log10 (% of sTRSVctl)); HEK293T overexpressing SLC46A1; ligand concentration (+) RNA-Seq: 6 mM; higher = less ribozyme self-cleavage, higher mRNA level; details: with (6R,S)-folinic acid; ligand present: yes
Procedure: as §1

Row | Variant | FACS-Seq fitted mean (log10) ((6R,S)-folinic acid [1]) | normalized RNA/DNA level without ligand (log10) ((6R,S)-folinic acid [2]) | FACS-Seq fitted mean (log10) ((6R,S)-folinic acid [3]) | normalized RNA/DNA level with ligand (log10) ((6R,S)-folinic acid [4])
1 | GAACAG | 0.808 ± 0.1 | 1.959 ± 0.0099 | 0.638 ± 0.1 | 2.01 ± 0.03
2 | GACACA | 0.265 ± 0.028 | 1.99 ± 0.02 | 0.656 ± 0.046 | 2 ± 0.037
3 | GAAUCG | 0.149 ± 0.053 | 1.966 ± 0.0024 | 0.372 ± 0.14 | 2 ± 0.022
4 | GAAUCA | 0.429 ± 0.13 | 2.017 ± 0.005 | 0.409 ± 0.051 | 2.01 ± 0.03
5 | GACAUA | 0.346 ± 0.14 | 1.984 ± 0.0071 | 0.3032 ± 0.002 | 2.01 ± 0.044
6 | GACAUU | 0.457 ± 0.096 | 2.024 ± 0.013 | 0.529 ± 0.11 | 2 ± 0.064
7 | GAAAGG | 0.138 ± 0.034 | 1.902 ± 0.0036 | 0.0807 ± 0.19 | 2 ± 0.021
8 | AAACGU | 0.248 ± 0.096 | 1.966 ± 0.011 | 0.326 ± 0.22 | 2 ± 0.024
9 | AAACGA | 0.186 ± 0.039 | 2 ± 0.018 | 0.192 ± 0.16 | 2.03 ± 0.026
10 | AAACGG | 0.359 ± 0.076 | 1.903 ± 0.013 | 0.384 ± 0.1 | 2.006 ± 0.016
11 | AACACG | 0.361 ± 0.13 | 1.938 ± 0.0019 | 0.436 ± 0.18 | 2 ± 0.045
12 | CAAGAG | 0.355 ± 0.047 | 1.903 ± 0.013 | 0.365 ± 0.14 | 1.98 ± 0.024
13 | CAAGAA | 0.425 ± 0.21 | 1.95 ± 0.0095 | 0.427 ± 0.2 | 2 ± 0.024
14 | UAACGC | 0.334 ± 0.0089 | 1.993 ± 0.008 | 0.0549 ± 0.066 | 2.02 ± 0.045
15 | UAACGG | 0.142 ± 0.02 | 1.705 ± 0.011 | 0.534 ± 0.11 | 1.95 ± 0.034
16 | UAACGA | 0.256 ± 0.05 | 1.93 ± 0.0022 | 0.34 ± 0.11 | 2.01 ± 0.036
17 | GACAAC | 0.378 ± 0.076 | 1.987 ± 0.0049 | 0.472 ± 0.21 | 2.004 ± 0.013
18 | GACAAA | 0.367 ± 0.089 | 1.974 ± 0.0039 | 0.306 ± 0.081 | 2.007 ± 0.019

Row | Variant | FACS-Seq fitted mean (log10) ((6R,S)-folinic acid [1]) | normalized RNA/DNA level without ligand (log10) ((6R,S)-folinic acid [2]) | FACS-Seq fitted mean (log10) ((6R,S)-folinic acid [3]) | normalized RNA/DNA level with ligand (log10) ((6R,S)-folinic acid [4])
19 | AAAUGG | 0.445 ± 0.096 | 1.87 ± 0.0028 | 0.499 ± 0.072 | 2 ± 0.031
20 | AAAUGC | 0.594 ± 0.028 | 2.03 ± 0.007 | 0.713 ± 0.3 | 2.03 ± 0.033
21 | AAAUGA | 0.485 ± 0.018 | 1.963 ± 0.005 | 0.406 ± 0.022 | 2.04 ± 0.044
22 | CACAUA | 0.25 ± 0.021 | 1.978 ± 0.0043 | 0.219 ± 0.3 | 2.02 ± 0.035
23 | GAAUGA | 0.25 ± 0.057 | 1.992 ± 0.0057 | 0.299 ± 0.2 | 2.02 ± 0.022
24 | GAAUGG | 0.297 ± 0.079 | 1.89 ± 0.013 | 0.386 ± 0.37 | 2.03 ± 0.019
25 | UAACUA | 0.248 ± 0.065 | 1.98 ± 0.027 | 0.41 ± 0.11 | 2.03 ± 0.028
26 | UAACUU | 0.511 ± 0.0079 | 1.994 ± 0.011 | 0.408 ± 0.12 | 2 ± 0.045
27 | UAACUG | 0.401 ± 0.0068 | 1.846 ± 0.015 | 0.499 ± 0.1 | 2 ± 0.024
28 | GAACGA | 0.313 ± 0.13 | 1.997 ± 0.012 | 0.623 ± 0.36 | 2.031 ± 0.02
29 | GAACGG | 0.0676 ± 0.01 | 1.94 ± 0.032 | 0.104 ± 0.12 | 2.018 ± 0.019
30 | GAACGC | 0.22 ± 0.11 | 1.946 ± 0.0053 | 0.118 ± 0.03 | 1.99 ± 0.022
31 | GAAUAC | 0.463 ± 0.14 | 1.974 ± 0.0095 | 0.313 ± 0.25 | 2 ± 0.053
32 | GAAUAA | -0.184 ± 0.011 | 1.976 ± 0.0046 | -0.234 ± 0.28 | 1.989 ± 0.016
33 | AACAAG | 0.152 ± 0.031 | 1.923 ± 0.0084 | 0.113 ± 0.2 | 2.02 ± 0.036
34 | AACAAA | 0.414 ± 0.011 | 1.967 ± 0.017 | 0.365 ± 0.15 | 1.99 ± 0.021
35 | AACAAU | 0.338 ± 0.22 | 1.935 ± 0.0082 | 0.122 ± 0.3 | 1.97 ± 0.039
36 | AACAAC | -0.0136 ± 0.067 | 2.028 ± 0.006 | -0.491 ± 0.14 | 2.02 ± 0.024
